According to patent US20260167699A1 (Chugai, published 2026):

T1: FcγRIIa(H) (human, UniProt P12318 34-217)
T1 construct: extracellular domain; also called 2aH
T1 sequence: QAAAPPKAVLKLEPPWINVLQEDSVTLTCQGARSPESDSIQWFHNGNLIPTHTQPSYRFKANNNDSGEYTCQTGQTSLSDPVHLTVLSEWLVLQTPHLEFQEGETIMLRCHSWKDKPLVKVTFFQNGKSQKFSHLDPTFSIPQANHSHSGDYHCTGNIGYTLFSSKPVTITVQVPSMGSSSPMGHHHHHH

T2: FcγRIIb (human, UniProt P31994 43-217)
T2 construct: extracellular domain; also called 2b
T2 sequence: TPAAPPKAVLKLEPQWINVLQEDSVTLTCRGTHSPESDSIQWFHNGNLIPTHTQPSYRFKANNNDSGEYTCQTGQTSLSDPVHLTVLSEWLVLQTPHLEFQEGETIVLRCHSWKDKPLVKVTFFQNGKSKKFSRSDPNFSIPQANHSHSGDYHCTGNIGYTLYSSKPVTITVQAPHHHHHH

T3: FcγRIIa(R) (human, UniProt P12318 34-217)
T3 construct: extracellular domain; also called 2aR
T3 sequence: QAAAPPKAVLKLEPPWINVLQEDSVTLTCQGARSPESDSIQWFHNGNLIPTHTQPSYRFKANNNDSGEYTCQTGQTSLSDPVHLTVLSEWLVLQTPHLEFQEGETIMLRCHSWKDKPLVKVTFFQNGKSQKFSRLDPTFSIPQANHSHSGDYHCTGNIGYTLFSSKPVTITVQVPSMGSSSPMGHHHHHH

T4: FcγRIIb extracellular domain with C-terminal His tag (human, UniProt P31994 43-217)
T4 construct: extracellular domain; also called 2b; CD32
T4 sequence: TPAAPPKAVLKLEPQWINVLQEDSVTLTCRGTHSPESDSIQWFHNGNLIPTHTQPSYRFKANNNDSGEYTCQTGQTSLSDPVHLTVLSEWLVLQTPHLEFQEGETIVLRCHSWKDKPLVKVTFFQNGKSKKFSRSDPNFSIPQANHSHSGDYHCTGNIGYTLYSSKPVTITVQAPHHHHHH

T5: FcγRIIa(R) extracellular domain with C-terminal His tag (human, UniProt P12318 34-217)
T5 construct: extracellular domain; R131 allotype; also called 2aR; CD32
T5 sequence: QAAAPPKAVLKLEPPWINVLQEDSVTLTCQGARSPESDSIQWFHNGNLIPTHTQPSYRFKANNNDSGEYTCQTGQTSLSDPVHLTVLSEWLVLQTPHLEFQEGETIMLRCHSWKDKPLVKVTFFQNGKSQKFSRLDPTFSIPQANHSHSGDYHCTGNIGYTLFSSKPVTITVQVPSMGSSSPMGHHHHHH

T6: FcγRIIa(H) extracellular domain with C-terminal His tag (human, UniProt P12318 34-217)
T6 construct: extracellular domain; H131 allotype; also called 2aH; CD32
T6 sequence: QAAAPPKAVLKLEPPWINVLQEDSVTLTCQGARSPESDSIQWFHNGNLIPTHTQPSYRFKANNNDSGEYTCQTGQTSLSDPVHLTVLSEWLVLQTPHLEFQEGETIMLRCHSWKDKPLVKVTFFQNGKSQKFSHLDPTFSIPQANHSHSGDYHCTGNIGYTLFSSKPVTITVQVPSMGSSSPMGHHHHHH


Experiments:
FcγRIIa(H) = target: T1, FcγRIIa(H); assay: SPR, relative to GpH7-A5/GpH7-B3/GpL16-k0 =100
FcγRIIb = target: T2, FcγRIIb; assay: SPR, relative to GpH7-A5/GpH7-B3/GpL16-k0 =100
FcγRIa = target: T7, FcγRIa (human, UniProt P12314 16-292); assay: SPR, relative to GpH7-A5/GpH7-B3/GpL16-k0 =100
T7 construct: extracellular domain; also called 1a
T7 sequence (P12314 other isoform, or with tags, fused parts or gaps): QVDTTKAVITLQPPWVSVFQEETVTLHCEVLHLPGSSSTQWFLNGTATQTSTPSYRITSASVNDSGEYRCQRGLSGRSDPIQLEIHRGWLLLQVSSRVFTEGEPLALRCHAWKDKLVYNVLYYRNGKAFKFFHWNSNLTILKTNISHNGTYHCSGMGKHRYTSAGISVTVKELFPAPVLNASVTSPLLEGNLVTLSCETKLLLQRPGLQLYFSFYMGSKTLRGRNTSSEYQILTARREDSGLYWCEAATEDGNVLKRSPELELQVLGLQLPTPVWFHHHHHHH

FcγRIIa(R) = target: T3, FcγRIIa(R); assay: SPR, relative to GpH7-A5/GpH7-B3/GpL16-k0 =100
[1] = target: T8, FcγRIa extracellular domain with C-terminal His tag (human, UniProt P12314 16-292); assay: SPR; % of GpH7-A5/GpH7-B3/GpL16-k0
T8 construct: extracellular domain; also called 1a; CD64
T8 sequence (P12314 other isoform, or with tags, fused parts or gaps): as above

[2] = target: T9, FcγRIIIa extracellular domain with C-terminal His tag (human, UniProt P08637 17-208); assay: SPR; % of GpH7-A5/GpH7-B3/GpL16-k0
T9 construct: extracellular domain; also called 3a; CD16
T9 sequence (P08637 other isoform, or with tags, fused parts or gaps): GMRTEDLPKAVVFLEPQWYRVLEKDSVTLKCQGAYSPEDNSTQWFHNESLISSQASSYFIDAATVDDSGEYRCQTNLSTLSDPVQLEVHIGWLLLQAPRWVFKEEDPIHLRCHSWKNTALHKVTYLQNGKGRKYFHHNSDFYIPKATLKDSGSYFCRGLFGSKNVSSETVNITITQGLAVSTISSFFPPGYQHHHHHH

[3] = target: T4, FcγRIIb extracellular domain with …; assay: SPR; % of GpH7-A5/GpH7-B3/GpL16-k0
[4] = target: T5, FcγRIIa(R) extracellular domain with …; assay: SPR; % of GpH7-A5/GpH7-B3/GpL16-k0
[5] = target: T6, FcγRIIa(H) extracellular domain with …; assay: SPR; % of GpH7-A5/GpH7-B3/GpL16-k0

| Binder | He/Con 2aH (FcγRIIa(H)) | He/Con 2b (FcγRIIb) | He/Con 1a (FcγRIa) | He/Con 2aR (FcγRIIa(R)) | He/Con 1a [1] | He/Con 3a [2] | He/Con 2b [3] | He/Con 2aR [4] | He/Con 2aH [5] |
| --- | --- | --- | --- | --- | --- | --- | --- | --- | --- |
| GpH7-A5/GpH7-B3 variant Y300_16H/GpL16-k0 (antibody, human IgG1, kappa, He Ab: heterodimerized IgG1, one H chain mutated) heavy 1: not shown heavy 2: not shown light: DIVMTQSPLSLPVTPGEPASISCQASESLVHSNRNTYLHWYLQKPGQSPQLLIYKVSNRFSGVPDRFSGSGSGTDFTLKISRVEAEDVGVYYCSQNTHVPPTFGQGTKVEIERTVAAPSVFIFPPSDEQLKSGTASVVCLLNNFYPREAKVQWKVDNALQSGNSQESVTEQDSKDSTYSLSSTLTLSKADYEKHKVYACEVTHQGLSSPVTKSFNRGEC | 105% | 114% | 105% | 103% | – | – | – | – | – |
| GpH7-A5/GpH7-B3 variant T335_14T/GpL16-k0 (antibody, human IgG1, kappa, also called He Ab) heavy 1: not shown heavy 2: not shown light: DIVMTQSPLSLPVTPGEPASISCQASESLVHSNRNTYLHWYLQKPGQSPQLLIYKVSNRFSGVPDRFSGSGSGTDFTLKISRVEAEDVGVYYCSQNTHVPPTFGQGTKVEIERTVAAPSVFIFPPSDEQLKSGTASVVCLLNNFYPREAKVQWKVDNALQSGNSQESVTEQDSKDSTYSLSSTLTLSKADYEKHKVYACEVTHQGLSSPVTKSFNRGEC | – | – | – | – | 110% | 104% | 116% | 116% | 112% |
| GpH7-A5/GpH7-B3 variant A330_15Y/GpL16-k0 (antibody, human IgG1, kappa, heterodimerized IgG1 (He Ab), mutation in one H chain only; also called He Ab) heavy 1: not shown heavy 2: not shown light: DIVMTQSPLSLPVTPGEPASISCQASESLVHSNRNTYLHWYLQKPGQSPQLLIYKVSNRFSGVPDRFSGSGSGTDFTLKISRVEAEDVGVYYCSQNTHVPPTFGQGTKVEIERTVAAPSVFIFPPSDEQLKSGTASVVCLLNNFYPREAKVQWKVDNALQSGNSQESVTEQDSKDSTYSLSSTLTLSKADYEKHKVYACEVTHQGLSSPVTKSFNRGEC | – | – | – | – | 108% | 122% | 107% | 114% | 106% |
| GpH7-A5/GpH7-B3 variant A330_06M/GpL16-k0 (antibody, human IgG1, kappa, heterodimerized IgG1 (He Ab), mutation in one H chain only; also called He Ab) heavy 1: not shown heavy 2: not shown light: DIVMTQSPLSLPVTPGEPASISCQASESLVHSNRNTYLHWYLQKPGQSPQLLIYKVSNRFSGVPDRFSGSGSGTDFTLKISRVEAEDVGVYYCSQNTHVPPTFGQGTKVEIERTVAAPSVFIFPPSDEQLKSGTASVVCLLNNFYPREAKVQWKVDNALQSGNSQESVTEQDSKDSTYSLSSTLTLSKADYEKHKVYACEVTHQGLSSPVTKSFNRGEC | – | – | – | – | 108% | 139% | 90.9% | 107% | 101% |
| GpH7-A5/GpH7-B3 variant A330_05P/GpL16-k0 (antibody, human IgG1, kappa, heterodimerized IgG1 (He Ab), mutation in one H chain only; also called He Ab) heavy 1: not shown heavy 2: not shown light: DIVMTQSPLSLPVTPGEPASISCQASESLVHSNRNTYLHWYLQKPGQSPQLLIYKVSNRFSGVPDRFSGSGSGTDFTLKISRVEAEDVGVYYCSQNTHVPPTFGQGTKVEIERTVAAPSVFIFPPSDEQLKSGTASVVCLLNNFYPREAKVQWKVDNALQSGNSQESVTEQDSKDSTYSLSSTLTLSKADYEKHKVYACEVTHQGLSSPVTKSFNRGEC | – | – | – | – | 105% | 152% | 154% | 129% | 92.6% |
| GpH7-A5/GpH7-B3 variant E333_01G/GpL16-k0 (antibody, human IgG1, kappa, heterodimerized IgG1 (He Ab), mutation in one H chain only; also called He Ab) heavy 1: not shown heavy 2: not shown light: DIVMTQSPLSLPVTPGEPASISCQASESLVHSNRNTYLHWYLQKPGQSPQLLIYKVSNRFSGVPDRFSGSGSGTDFTLKISRVEAEDVGVYYCSQNTHVPPTFGQGTKVEIERTVAAPSVFIFPPSDEQLKSGTASVVCLLNNFYPREAKVQWKVDNALQSGNSQESVTEQDSKDSTYSLSSTLTLSKADYEKHKVYACEVTHQGLSSPVTKSFNRGEC | – | – | – | – | 97.2% | 101% | 105% | 127% | 112% |
| GpH7-A5/GpH7-B3 variant A330_12R/GpL16-k0 (antibody, human IgG1, kappa, heterodimerized IgG1 (He Ab), mutation in one H chain only; also called He Ab) heavy 1: not shown heavy 2: not shown light: DIVMTQSPLSLPVTPGEPASISCQASESLVHSNRNTYLHWYLQKPGQSPQLLIYKVSNRFSGVPDRFSGSGSGTDFTLKISRVEAEDVGVYYCSQNTHVPPTFGQGTKVEIERTVAAPSVFIFPPSDEQLKSGTASVVCLLNNFYPREAKVQWKVDNALQSGNSQESVTEQDSKDSTYSLSSTLTLSKADYEKHKVYACEVTHQGLSSPVTKSFNRGEC | – | – | – | – | 103% | 77.3% | 95.8% | 116% | 116% |
